# According to US20240400689A1:
# T1: HUMAN B7H3 (Biacore analyte) (human) (UniProt Q5ZPR3)
# T1 sequence (looked up): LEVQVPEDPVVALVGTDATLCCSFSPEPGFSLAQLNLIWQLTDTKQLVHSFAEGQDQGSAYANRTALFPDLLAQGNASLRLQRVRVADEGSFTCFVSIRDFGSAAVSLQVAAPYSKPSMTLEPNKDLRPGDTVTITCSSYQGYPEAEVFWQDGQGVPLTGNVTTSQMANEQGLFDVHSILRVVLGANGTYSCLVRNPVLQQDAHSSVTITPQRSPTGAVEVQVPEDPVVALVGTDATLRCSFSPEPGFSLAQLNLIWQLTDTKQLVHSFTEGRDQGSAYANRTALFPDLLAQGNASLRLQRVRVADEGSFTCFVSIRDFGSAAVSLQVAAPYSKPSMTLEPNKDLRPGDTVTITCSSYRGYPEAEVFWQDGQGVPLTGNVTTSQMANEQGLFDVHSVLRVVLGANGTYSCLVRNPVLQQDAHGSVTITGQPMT
# What was measured:
# [1] = target: T1, HUMAN B7H3 (Biacore analyte) (human); assay: SPR, Biacore 8K, antibody captured, B7H3 as analyte, 1:1 binding
# [2] = target: human CD276 protein (human) (UniProt Q5ZPR3); assay: FACS on SKOV3 cells
# [3] = target: human CD276 protein (human) (UniProt Q5ZPR3); assay: cell-based or functional assay
# [4] = target: mouse CD276 protein (mouse) (UniProt Q8VE98); assay: FACS on CHO-S-mCD276 cells
# mouse CD276 protein (mouse), sequence (Q8VE98 29-316): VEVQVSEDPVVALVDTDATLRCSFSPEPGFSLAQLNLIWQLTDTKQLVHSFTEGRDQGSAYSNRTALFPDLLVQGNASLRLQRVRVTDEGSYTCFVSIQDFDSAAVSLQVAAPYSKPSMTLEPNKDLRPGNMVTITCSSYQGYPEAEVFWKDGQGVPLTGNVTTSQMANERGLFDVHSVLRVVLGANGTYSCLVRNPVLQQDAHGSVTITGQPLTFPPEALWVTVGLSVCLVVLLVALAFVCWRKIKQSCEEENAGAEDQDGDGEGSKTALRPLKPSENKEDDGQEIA
Binder,Kd [1],koff [1],kon [1],EC50 [2],MFI (Max) [2],EC50 of antibody induced ADCC effect on SKOV3 [3],EC50 of antibody induced CDC effect [3],"Top cytotoxicity (%), CDC [3]",FACS MFI [4]
"Enoblituzumab (antibody, part only; not given: constant regions, V domains shown, not shown: another chain or arm of the molecule) VH: EVQLVESGGGLVQPGGSLRLSCAASGFTFSSFGMHWVRQAPGKGLEWVAYISSDSSAIYYADTVKGRFTISRDNAKNSLYLQMNSLRDEDTAVYYCGRGRENIYYGSRLDYWGQGTTVTVSS VL: DIQLTQSPSFLSASVGDRVTITCKASQNVDTNVAWYQQKPGKAPKALIYSASYRYSGVPSRFSGSGSGTDFTLTISSLQPEDFATYYCQQYNNYPFTFGQGTKLEIK",3.8 nM,0.000486 s⁻¹,128000 M⁻¹ s⁻¹,0.985 µg/mL,830,0.0864 µg/mL,7.28 nM,80.1%,
"10-B9-D10-A12 (antibody, V domains shown) VH: EVQLQESGPELVRPGVSVKISCKGSGYTFTDYTMHWVKLSHAKSLEWIGVISTYYGNTNYNQKFKGKATLTVDKSSSTAYMELARLTSEDSAIYYCARASYGSGYGPYYWYFDVWGAGTTVTVSS VL: DIQMTQSPASLFASVGETVTITCRASEKIYSYLAWYFQKQGKSPQFLVYNANALAEGVPSRFSGSGSGTQFSLKINSLQPEDFGTYYCQHHYGTPVTFGAGSKLELK",,,,,,,,,3170
